# Measured values: patent US20170298146A1 (MODIQUEST B V, published 2017)
# Non-standard residues stand in square brackets, D forms with d. No end group written: not given here. Cit = NC(=O)NCCC[C@H](N)C(=O)O
# T1: msFibβ XG (mouse, also: biotin label)
# T1 peptide: EPTDSLDA[Cit]GHRPVDRR
# T2: msVim XS/XL (mouse, also: biotin label)
# T2 construct: also called mouse vimentin peptide
# T2 peptide: YVT[Cit]SSAV[Cit]L[Cit]SSVP
# T3: msFibα XH (mouse, X at position 15 is citrulline; biotin label)
# T3 peptide: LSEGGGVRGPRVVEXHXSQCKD
# T4: msFibα XG (mouse, X at position 8 is citrulline; biotin label)
# T4 peptide: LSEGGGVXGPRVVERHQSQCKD
# T5: huFibα XH (human, X at position 15 is citrulline; biotin label)
# T5 peptide: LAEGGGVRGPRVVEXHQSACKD
# T6: huFibα XG (human, X at position 8 is citrulline; biotin label)
# T6 peptide: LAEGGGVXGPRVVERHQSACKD
# T7: Histone 2A citrulline-containing peptide 6 (human, also: biotin label)
# T7 peptide: VHRLL[Cit]KGNYSE
# T8: Histone 2A citrulline-containing peptide 3 (human, also: biotin label)
# T8 peptide: KSRSS[Cit]AGLQFP
# B1: RhmAb2.102 (antibody, human IgG1, lambda)
# heavy: not shown
# light: QSVLTQPPSMSAAPGQKVTISCSGSSSNIGNNYVSWYQQVPGTAPKLLIYDDNKRPSGIPGRFSGSKSATSATLGITGLQAGDEADYYCGSWDDNLSVVLFGGGTKLTVLGQPKAAPSVTLFPPSSEELQANKATLVCLISDFYPGAVTVAWKADSSPVKAGVETTTPSKQSNNKYAASSYLSLTPEQWKSHRSYSCQVTHEGSTVEKTVAPTECS
# notes: Human IgG1 lambda; also called Rhm2.102
# Columns and labels:
# msFibβ XG [1] = target: T1, msFibβ XG; assay: peptide ELISA, 2 ug/well
# Description: (§1) Biotin and citrulline-containing peptides derived from fibrinogen and vimentin were immobilized on NEUTRAVIDIN®-coated 96-well ELISA plates (0.3 μg/well). CFC-1 and CFC-0 were coated at the same concentration and served as positive and negative controls respectively for specific anti-citrulline reactivity and as coating controls. Non-coated wells were used to test for aspecific binding of the antibodies. […] Detection of bound anti-citrulline antibodies was performed by incubating the wells with rabbit-anti-human-HRP (1:2000) for one hour at RT followed by incubation with TMB substrate. The resulting OD (y-axis) is a measure for antibody binding.
# (§2) Biotin-labeled and citrulline-containing fibrinogen and vimentin peptides (Table 5) were also tested for reactivity with the therapeutic antibodies. Peptides were coated on 96-well NEUTRAVIDIN®-ELISA plates.
# msVim XS/XL [2] = target: T2, msVim XS/XL; assay: peptide ELISA, 2 ug/well
# Description: as §1, §2
# CFC-1 [3] = target: T9, CFC-1; assay: peptide ELISA, 2 ug/well
# T9 construct: Positive control for anti-citrulline reactivity; also called cfc1 XG
# Description: as §1, §2
# msFibα XH [4] = target: T3, msFibα XH; assay: peptide ELISA, 2 ug/well
# Description: as §1, §2
# msFibα XG [5] = target: T4, msFibα XG; assay: peptide ELISA, 2 ug/well
# Description: as §1, §2
# msFibβ XG [6] = target: T1, msFibβ XG; assay: peptide ELISA, 0.00064 ug/well
# Description: as §1, §2
# msVim XS/XL [7] = target: T2, msVim XS/XL; assay: peptide ELISA, 0.00064 ug/well
# Description: as §1, §2
# CFC-1 [8] = target: T9, CFC-1; assay: peptide ELISA, 0.00064 ug/well
# Description: as §1, §2
# msFibα XH [9] = target: T3, msFibα XH; assay: peptide ELISA, 0.00064 ug/well
# Description: as §1, §2
# msFibα XG [10] = target: T4, msFibα XG; assay: peptide ELISA, 0.00064 ug/well
# Description: as §1, §2
# huFibα XH = target: T5, huFibα XH; assay: peptide ELISA, 0.00064 ug/well
# Description: as §1, §2
# huFibα XG = target: T6, huFibα XG; assay: peptide ELISA, 0.00064 ug/well
# Description: as §1, §2
# [11] = target: T7, Histone 2A citrulline-containing …; assay: peptide ELISA, 0.4 ug/well
# Description: as §1, with “histone 2A” for “fibrinogen and vimentin”
# (§3) Ninety-six-well ELISA plates were coated with NEUTRAVIDIN® (0.1 μg/well) by overnight incubation at 4° C. Wells were washed five times with PBS-TWEEN®-20 (PBS-T) and blocked by a one-hour incubation with PBS-T+1% Bovine serum albumin (BSA) at room temperature (RT). After five more washes with PBS-T, wells were incubated for one hour at RT with histone-derived citrulline and biotin-containing peptides (0.3 μg/well). […] Wells were washed five times with PBS-T and incubated with rabbit-anti-human-HRP (1:2000) for one hour at RT followed by five washes with PBS-T and three wash steps with PBS. Wells were incubated for five minutes with TMB substrate before stopping the reaction with 2 M H₂SO₄. Optical density was measured by 450 nm and is a measure for the affinity of the antibodies used.
# [12] = target: T8, Histone 2A citrulline-containing …; assay: peptide ELISA, 0.4 ug/well
# Description: as §1, with “histone 2A” for “fibrinogen and vimentin”
# as §3
# [13] = target: T10, huPAD2 deiminated human recombinant histone H3 (human); assay: ELISA, 10 ug/well
# T10 construct: also called H3/p2
# Description: (§4) CFC-1 and CFC-0 were coated at the same concentration and served as positive and negative controls, respectively, for specific anti-citrulline reactivity and as coating controls. Non-coated wells were used to test for aspecific binding of the antibodies. […] Detection of bound anti-citrulline antibodies was performed by incubating the wells with rabbit-anti-human-HRP (1:2000) for one hour at RT followed by incubation with TMB substrate. The resulting OD (y-axis) is a measure for antibody binding. H1=recombinant histone 1; H1/p2=huPAD2 recombinant histone 1; H1/p4=huPAD4 recombinant histone 1 and so forth (x-axis).
# [14] = target: human recombinant histone H4 (human, UniProt P62805 2-103); assay: ELISA, 10 ug/well
# Description: as §4
# [15] = target: T11, huPAD4 deiminated human recombinant histone H3 (human); assay: ELISA, 10 ug/well
# T11 construct: also called H3/p4
# Description: as §4
# [16] = target: T12, huPAD4 deiminated human recombinant histone H2B (human); assay: ELISA, 10 ug/well
# T12 construct: also called H2B/p4
# Description: as §4
# CFC-1 [17] = target: T9, CFC-1; assay: ELISA, 10 ug/well
# Description: as §4
# [18] = target: T13, huPAD2 deiminated human recombinant histone H2A (human); assay: ELISA, 10 ug/well
# T13 construct: also called H2A/p2
# Description: as §4
# [19] = target: T14, human recombinant histone H2A (human); assay: ELISA, 10 ug/well
# T14 construct: Non-deiminated
# Description: as §4
# [20] = target: T15, human recombinant histone H2B (human); assay: ELISA, 10 ug/well
# T15 construct: Non-deiminated
# Description: as §4
# [21] = target: T16, huPAD2 deiminated human recombinant histone H2B (human); assay: ELISA, 10 ug/well
# T16 construct: also called H2B/p2
# Description: as §4
# [22] = target: T17, huPAD4 deiminated human recombinant histone H2A (human); assay: ELISA, 10 ug/well
# T17 construct: also called H2A/p4; huPAD4 deiminated histone 2A
# Description: as §4
binder,measurement,setting,value
B1,OD,msFibβ XG [1],3.15 OD
same,OD,msVim XS/XL [2],2.77 OD
same,OD,CFC-1 [3],3.97 OD
same,OD,msFibα XH [4],0.091 OD
same,OD,msFibα XG [5],1.9 OD
same,OD,msFibβ XG [6],0.133 OD
same,OD,msVim XS/XL [7],0.154 OD
same,OD,CFC-1 [8],0.345 OD
same,OD,msFibα XH [9],0.088 OD
same,OD,msFibα XG [10],0.116 OD
same,OD,huFibα XH,0.124 OD
same,OD,huFibα XG,0.125 OD
same,OD,[11],0.333 OD
same,OD,[12],0.154 OD
same,OD,[13],2.44 OD
same,OD,[14],0.825 OD
same,OD,[15],1.31 OD
same,OD,[16],0.229 OD
same,OD,CFC-1 [17],3.48 OD
same,OD,[18],3.41 OD
same,OD,[19],0.428 OD
same,OD,[20],0.247 OD
same,OD,[21],0.31 OD
same,OD,[22],3.42 OD
